According to US20250152627A1, “COMPOSITIONS AND METHODS FOR ENHANCING IMMUNE CELL FUNCTION USING MODIFIED CELLS WITH GLYCOCALYX EDITING ENZYMES” (Cornell University, priority 2021, published 2025):

How the values were obtained:
1E7 cells = test: NK cell cytotoxicity assay against 1E7 cells; assay type: cell-based; conditions: 1E7 target cells; NK cell to target cell ratio 5:1 or 10:1
Experimental: Target MCF10A cells were fluorescently labeled by incubation with 1 M CellTracker Green CMFDA Dye (Invitrogen) in MCF10A growth media for 10 minutes. 3×10^4 labeled target cells were suspended with varying ratios of NK-92 effector cells in 200 μL of growth media of target cell line in absent of IL-2 and cocultured in an ultra-low attachment U-bottom 96-well plate (Corning) for 4 hours at 37° C. in 5% C02. For all StcE-treated NK cell experiment, unless otherwise indicated, NK cells were incubated with 100 nM StcE at 37° C. for 1 hour. Cells were thoroughly washed to remove StcE and coculture with target cells. After 4 hours, propidium iodide (PI; 20 μg/mL, Sigma) was added to each well for 10 minutes and washed with 0.5% BSA PBS. […] NK cell cytotoxicity was evaluated by flow cytometry as previously described^16,81. At least 1×10^4 target cells were analyzed after electronic gating on CellTracker Green. Percent cytotoxicity was calculated as 100×(experimental % dead−spontaneous % dead)/(100−spontaneous % dead), where experimental % dead was the percentage of PI positive target cells in NK cocultures and spontaneous % dead was the percentage of PI positive control target cells cultured in the absence of effector cells.

NK-92 cells = test: Flow cytometry of mucin levels on NK-92 cells after StcE incubation; assay type: cell-based; conditions: 100 nM recombinant enzyme
Experimental: FIG. 11. StcE mucinase effectively remove cell-surface mucin on 1E7 clone and NK cell. (A) Representative confocal images of Muc1-GFP expressing 1E7 cells with and without treatment with 100 nM StcE, StcE ΔX409, or StcE-EE Zip; Alexa Fluor 647 conjugated to GFP nanobody is used to probe cell-surface Muc1-GFP constructs. (Scale bar, 10 μm). (B) Quantification of mean fluorescence intensity of Muc1-GFP and cell-surface Muc1-GFP probed with GFP nanobody in 1E7 cells treated with the indicated concentration of StcE mucinase; results are shown for induction of Muc1-GFP at 100 ng/ml and 1000 ng/ml doxycycline. (C) Cytotoxicity of NK-92 cells against 1E7 cells treated with control buffer, 100 nM StcE mucinase, or 5,000 U/mL PNGase F for 1 hour; Muc1-GFP induction is at the indicated doxycycline concentration (1,100, and 1,000 ng/ml); NK cell to target cell ratio is 5:1. (D) Flow cytometry analysis of mucin levels on NK-92 cells following incubation with control buffer or 100 nM recombinant StcE or StcE ΔX409; StcE surface level after incubation probed with anti His-tag antibody and cell-surface mucin level probed with catalytically dead StcE E447D conjugated to Cy5. Statistical significance is given by ns—not significant, *P≤0.05, **P≤0.01, ***P≤0.001, ****P≤0.0001. Results are a representative dataset from 3 independent replicates. […]

B1: StcE-ΔX409: StcE with a deleted C-terminal X409 lectin domain; NK cells treated with it: StcE-ΔX409 NK (protein)
chain: ADNNSAIYFNTSQPINDLQGSLAAEVKFAQSQILPAHPKEGDSQPHLTSLRKSLLLVRPVKADDKTPVQVEARDDNNKILGTLTLYPPSSLPDTIYHLDGVPEGGIDFTPHNGTKKIINTVAEVNKLSDASGSSIHSHLTNNALVEIHTANGRWVRDIYLPQGPDLEGKMVRFVSSAGYSSTVFYGDRKVTLSVGNTLLFKYVNGQWFRSGELENNRITYAQHIWSAELPAHWIVPGLNLVIKQGNLSGRLNDIKIGAPGELLLHTIDIGMLTTPRDRFDFAKDKEAHREYFQTIPVSRMIVNNYAPLHLKEVMLPTGELLTDMDPGNGGWHSGTMRQRIGKELVSHGIDNANYGLNSTAGLGENSHPYVVAQLAAHNSRGNYANGIQVHGGSGGGGIVTLDSTLGNEFSHEVGHNYGLGHYVDGFKGSVHRSAENNNSTWGWDGDKKRFIPNFYPSQTNEKSCLNNQCQEPFDGHKFGFDAMAGGSPFSAANRFTMYTPNSSAIIQRFFENKAVFDSRSSTGFSKWNADTQEMEPYEHTIDRAEQITASVNELSESKMAELMAEYAVVKVHMWNGNWTRNIYIPTASADNRGSILTINHEAGYNSYLFINGDEKVVSQGYKKSFVSDGQFWKERDVVDTREARKPEQFGVPVTTLVGYYDPEGTLSSYIYPAMYGAYGFTYSDDSQNLSDNDCQLQVDTKEGQLRFRLANHRANNTVMNKFHINVPTESQPTQATLVCNNKILDTKSLTPAPEGLTYTVN
- cytotoxicity of enzyme-equipped or enzyme-treated NK cells compared to unmodified NK-92 cells (1E7 cells): not significantly enhanced
- trimming of mucin-domain containing proteins on NK-92 cells (NK-92 cells): trimmed similarly
